Experimental data: US20230272117A1, “ANTI ABCC1 ANTIBODIES AND USES THEREOF” (Kenjockety Biotechnology, Inc., priority 2020, published 2023)

B1: C1.851.hu12: humanized anti-ABCC1 antibody, VH SEQ ID NO: 27, VL SEQ ID NO: 105 (antibody, V domains shown)
VH: EVQLQESGPGLVKPSETLSLTCTVSGFSLTNNGVSWIRQPPGKGLEWIAAISSGGNIYYNSAFKSRLTISRDTSKNQVSLKLSSVTAADTAVYYCARHRGYYGYNWGYFDYWGQGTLVTVSS
VL: DIQLTQSPSSLSASVGDRVTITCKGSQNINNYLAWYQQKPGKAPKLLIYKTNSLQTGIPSRFSGSGSGTDYTLTISSLQPEDFATYYCYQYNNGYTFGQGTKLEIK
modifications: humanized sequence
B2: C1.851.hu14: humanized anti-ABCC1 antibody, VH SEQ ID NO: 27, VL printed as SEQ ID NO: 76, LCDR3 SEQ ID NO: 148 (antibody, V domains shown)
VH: EVQLQESGPGLVKPSETLSLTCTVSGFSLTNNGVSWIRQPPGKGLEWIAAISSGGNIYYNSAFKSRLTISRDTSKNQVSLKLSSVTAADTAVYYCARHRGYYGYNWGYFDYWGQGTLVTVSS
VL: DVVMTQTPLSLPVSLGDQASISCRSSQSIVHSNGNTYLEWYLQKPGQSPKLLIYKVSNRFSGVPDRFSGSGTGTDFTLKISRVEAEDLGVYYCFQGSHVPRTFGGGTKLEIK
modifications: humanized sequence; Mus musculus or humanized sequence
B3: C1.851.hu15: humanized anti-ABCC1 antibody, VH SEQ ID NO: 27, VL printed as SEQ ID NO: 77, LCDR3 SEQ ID NO: 149 (antibody, V domains shown)
VH: EVQLQESGPGLVKPSETLSLTCTVSGFSLTNNGVSWIRQPPGKGLEWIAAISSGGNIYYNSAFKSRLTISRDTSKNQVSLKLSSVTAADTAVYYCARHRGYYGYNWGYFDYWGQGTLVTVSS
VL: DVVMTQAPSSLSASLGERISLTCRASQDIYGSLNWFQQKPDGTIKLLIYGTSSLDSGVPKRFSGSRSGSDYSLTISSLESEDFADYYCLQYASSPYTFGGGTKLEIK
modifications: humanized sequence; Mus musculus or humanized sequence
B4: C1.844.hu21: humanized anti-ABCC1 antibody, VH SEQ ID NO: 32, VL SEQ ID NO: 109 (antibody, V domains shown)
VH: EVQLVESGGGLIQPGGSLRLSCAVSGFSLTSNGVIWVRQPPGKGLEWIAAISSGGNIYYNSGLKSRLTISRDTSKNTVYLQMNSLRAEDTAVYYCTRARGTTTAYVMDAWGQGTLVTVSS
VL: DIVMTQSPDSLAVSLGERATINCKSSQSLLYSVNQKNYLAWYQQKPGQSPKLLIYWASTRQSGVPDRFSGSGSGTDFTLTISSLQAEDVAVYYCQQYYDTLMKMFGAGTKLELK
modifications: humanized sequence
B5: C1.831: anti-ABCC1 antibody, VH SEQ ID NO: 16, VL SEQ ID NO: 90 (antibody, listed as Rattus norvegicus, V domains shown)
VH: EVQLTESGPGLVQPSQTLSLTCTVSGFSLTSNGVSWVRQPPGKGLEWIAAISSGGNIYYNSVLKSRLSISRDTSKSQVFLKMSSVQTEDTAIYFCTRERGWNYPFITNGYYFDYWGQGVMVTVSS
VL: EIMLTQSPSLLSASVGDRVTLSCKAGQNINNYLAWYQQKLGEAPKLLIYNANSLQTGIPSRFSGSGSGTDYTLTISSLQPEDVATYFCQQYNSWYTFGAGTKLEIK
B6: C1.831.hu11: humanized anti-ABCC1 antibody, VH SEQ ID NO: 29, VL SEQ ID NO: 108 (antibody, V domains shown)
VH: EVQLQESGPGLVKPSETLSLTCTVSGFSLTSNGVSWVRQPPGKGLEWIAAISSGGNIYYNSVLKSRLTISRDTSKNQVSLKLSSVTAADTAVYYCTRERGWNYPFITNGYYFDYWGQGTLVTVSS
VL: DIQLTQSPSSLSASVGDRVTITCKAGQNINNYLAWYQQKPGKAPKLLIYNANSLQTGIPSRFSGSGSGTDYTLTISSLQPEDFATYYCQQYNSWYTFGQGTKLEIK
modifications: humanized sequence
B7: C1.787a: anti-ABCC1 antibody, VH SEQ ID NO: 11, VL SEQ ID NO: 86 (antibody, listed as Rattus norvegicus, V domains shown)
VH: EVQLTESGPGLVQPSQTLSLTCTVSGFSLTSNGVSWVRQPPGKGLEWIAAISSGGSTYYNSAFKSRLSISRHTSKSQVLLNMNSLQTEDTAMYFCARHRGYYWSNWGYFDYWGQGVMVTVSS
VL: NIQLTQSPSLLSASVGDRVTLSCKGSQNINNYLAWYQQKLGEAPKLLIYKTNSLQTGIPSRFSGSGSGTDYTLTLSSLHSEDLATYYCCQYNDGYTFGAGTKLELK
B8: C1.861.hu11: humanized anti-ABCC1 antibody, VH SEQ ID NO: 33, VL SEQ ID NO: 110 (antibody, V domains shown)
VH: EVQLQESGPGLVKPSETLSLTCTVSGFSLTSNGVTWVRQPPGKGLEWIAAISSGGNIYYNSAVKSRLTISRDTSKNQVSLKLSSVTAADTAVYYCTRARGTTTAYVMDAWGQGTTVTVSS
VL: DVQLTQSPSSLSASVGDRVTITCKSSQSLLYSGNQKNYLAWYQQKPGKSPKLLIYWASTRQSGVPSRFSGSGSGTDFTLTISSLQPEDVATYYCQQYYDVLMNMFGGGTKLEIK
modifications: humanized sequence
B9: C1.861.hu21: humanized anti-ABCC1 antibody, VH SEQ ID NO: 34, VL SEQ ID NO: 110 (antibody, V domains shown)
VH: EVQLVESGGGLIQPGGSLRLSCAVSGFSLTSNGVTWVRQPPGKGLEWIAAISSGGNIYYNSAVKSRLTISRDTSKNTVYLQMNSLRAEDTAVYFCTRARGTTTAYVMDAWGQGTTVTVSS
VL: DVQLTQSPSSLSASVGDRVTITCKSSQSLLYSGNQKNYLAWYQQKPGKSPKLLIYWASTRQSGVPSRFSGSGSGTDFTLTISSLQPEDVATYYCQQYYDVLMNMFGGGTKLEIK
modifications: humanized sequence

Columns and labels:
[1] = target: T1, human ABCC1 (Homo sapiens, UniProt P33527); experiment: Titration binding to human ABCC1-overexpressing rat C6 glioma cells (FACS); set-up: expressed in transfected cells
[2] = target: T2, cynomolgus ABCC1 (Macaca fascicularis, UniProt Q864R9); experiment: Titration binding to cynomolgus ABCC1-overexpressing rat C6 glioma cells (FACS); set-up: expressed in transfected cells
[3] = target: T1, human ABCC1; experiment: Titration binding assay of humanized antibodies (FIGS. 8A-8C), human ABCC1; set-up: expressed in transfected cells; host or cells: 293T (HEK 293T) cells; details: cell line not stated
Protocol: (§1) Binding titration of recombinant antibodies to KPC1 transfectants was performed by serial dilution of antibodies from about 666 nM, Diluted antibody in flow cytometry buffer was incubated with cells on ice for 30 min. After 2 washes with flow cytometry buffer, bound antibody was detected with PE-labeled F(ab′)2 fragment goat anti-human IgG (Jackson ImmunoResearch) diluted 1:200 in flow cytometry buffer and incubated with cells for 20 min on ice. After 2 washes with flow cytometry buffer fluorescence was measured on an Attune NxT flow cytometer. Data were analyzed with GraphPad Prism 8.0 software to determine EC50's.

[4] = target: T2, cynomolgus ABCC1; experiment: Titration binding assay of humanized antibodies (FIGS. 8A-8C), cynomolgus ABCC1; set-up: expressed in transfected cells; host or cells: 293T cells; details: cell line not stated
Protocol: as §1

[5] = target: T1, human ABCC1; experiment: ABCC1 efflux assay in HEK293T cells expressing human ABCC1; format: cell-based; set-up: expressed in transfected cells; host or cells: 293T (HEK 293T) cells; details: HEK293T cells expressing human ABCC1, Calcein AM fluorescence
Protocol: HEK 293T cells expressing human ABCC1 were washed several times and aliquoted into 96-well plates as 50 μl aliquots/well at a cell density of 1×10^6 cells per ml in phenol red-free DMEM. Cells were mixed with 50 μl antibodies and incubated for 1.5 h at 37° C. The cells were then washed twice and finally resuspended in […] PBS. Calcein AM fluorescence was measured by flow cytometry.

[6] = system: CT26 tumor; experiment: CT26 syngeneic mouse tumor model; format: in vivo; details: for effect of doxorubicin on the inhibition of tumor growth by the antibody: CT26, antibody 3 mg/kg + Doxorubicin 2 mg/kg; for tumor growth in vivo: CT26 in BALB/c mice, antibody 3 mg/kg intraperitoneally twice a week for two weeks
Protocol: Syngeneic models are allografts immortalized from mouse cancer cell lines, which are then grafted back into the same inbred immunocompetent mouse strain. CT26 is an N-nitroso-N-methylurethane-(NNMU) induced undifferentiated fibroblastic colon carcinoma cell line established from BALB/c mice with aggressive colon carcinoma. C26 cells were purchased from ATCC® (CRL-2638™) and maintained in RPMI-1640 medium supplemented with 10% FBS and 1% penicillin, 1% streptomycin at 37° C., 5% CO2. Cell lines used were authentic and confirmed to be mycoplasma negative. The cells are adherent with a fibroblast morphology and will form tumors and metastases post implantation into syngeneic BALB/c mice or immunocompromised mice.
1×10^6 cells diluted inPBS:Matrigel (1:1) were subcutaneously implanted using a 27G insulin syringe into anesthetized […] old female Balb/c mice under aseptic conditions. All animal maintenance, handling, surveillance, and animal procedures were performed in accordance with an approval from the APLAC protocol.
Once tumors reached 100-150 mm^3, mice were randomized into 6 groups of five mice each: • 1. Control isotype 3 mg/kg, • 2. Control isotype 3 mg/kg+Doxorubicin 2 mg/kg • 3. KNJY C1-831 3 mg/kg • 4. KNJY C1-831 3 mg/kg+Doxorubicin • 5. KNJY C1-787A 3 mg/kg • 6. KNJY C1-787A 3 mg/kg+Doxorubicin 2 mg/kg.
Doxorubicin is soluble in water. All test articles were dosed intraperitoneally twice a week for two consecutive weeks. Antibodies were dosed 4 hr prior to Doxorubicin.
Tumors were measured three times a week using a calibrated Vernier Caliper and tumor volume calculated as per the formula ½*L*S*S, where L is the long axis and S is the short axis of the tumor. Body weights were recorded before treatment started and were continuously monitored throughout the study. Animals were euthanized when turning moribund according to the above-mentioned predefined criteria rapid weight loss, loss of ability to ambulate, labored respiration, or inability to drink or feed to avoid animal suffering.

T1 sequence (P33527 whole entry): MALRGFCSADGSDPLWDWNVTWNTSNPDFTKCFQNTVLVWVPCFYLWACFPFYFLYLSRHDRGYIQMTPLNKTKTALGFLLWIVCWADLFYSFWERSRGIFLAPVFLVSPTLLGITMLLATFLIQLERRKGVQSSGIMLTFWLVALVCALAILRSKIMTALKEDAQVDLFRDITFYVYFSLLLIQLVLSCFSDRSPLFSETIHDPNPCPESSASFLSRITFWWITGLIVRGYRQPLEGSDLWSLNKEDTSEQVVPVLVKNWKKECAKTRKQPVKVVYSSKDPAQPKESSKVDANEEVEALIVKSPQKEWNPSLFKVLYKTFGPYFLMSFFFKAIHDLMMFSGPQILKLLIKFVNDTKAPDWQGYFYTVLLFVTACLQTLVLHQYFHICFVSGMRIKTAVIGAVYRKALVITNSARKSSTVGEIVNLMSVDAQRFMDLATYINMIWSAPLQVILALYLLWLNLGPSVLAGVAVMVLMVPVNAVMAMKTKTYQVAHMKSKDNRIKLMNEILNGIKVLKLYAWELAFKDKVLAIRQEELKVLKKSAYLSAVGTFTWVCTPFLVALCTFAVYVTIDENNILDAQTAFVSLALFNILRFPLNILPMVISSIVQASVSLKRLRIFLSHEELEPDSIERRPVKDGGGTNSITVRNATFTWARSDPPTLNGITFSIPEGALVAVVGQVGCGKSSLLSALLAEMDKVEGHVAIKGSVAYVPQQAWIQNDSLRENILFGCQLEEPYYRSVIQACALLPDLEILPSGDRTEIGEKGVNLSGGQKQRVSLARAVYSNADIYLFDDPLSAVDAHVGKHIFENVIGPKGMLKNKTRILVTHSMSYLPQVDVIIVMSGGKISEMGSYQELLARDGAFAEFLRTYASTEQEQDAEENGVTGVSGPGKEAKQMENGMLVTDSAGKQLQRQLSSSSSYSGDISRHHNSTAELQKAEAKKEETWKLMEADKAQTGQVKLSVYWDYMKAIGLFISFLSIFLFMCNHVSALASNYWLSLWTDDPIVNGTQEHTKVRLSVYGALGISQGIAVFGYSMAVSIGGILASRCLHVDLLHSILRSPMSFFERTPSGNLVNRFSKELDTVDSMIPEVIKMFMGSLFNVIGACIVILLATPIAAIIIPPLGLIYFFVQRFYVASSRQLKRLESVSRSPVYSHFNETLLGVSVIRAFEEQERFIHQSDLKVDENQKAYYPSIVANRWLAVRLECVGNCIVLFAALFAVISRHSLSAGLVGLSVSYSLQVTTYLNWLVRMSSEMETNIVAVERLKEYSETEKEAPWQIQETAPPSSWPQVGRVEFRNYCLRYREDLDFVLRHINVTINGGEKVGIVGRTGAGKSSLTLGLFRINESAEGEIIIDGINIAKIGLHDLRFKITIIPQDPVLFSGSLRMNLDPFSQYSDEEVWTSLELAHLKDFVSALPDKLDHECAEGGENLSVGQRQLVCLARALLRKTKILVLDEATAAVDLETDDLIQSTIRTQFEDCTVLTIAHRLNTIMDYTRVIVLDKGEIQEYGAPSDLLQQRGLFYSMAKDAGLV
T2 sequence (Q864R9 whole entry): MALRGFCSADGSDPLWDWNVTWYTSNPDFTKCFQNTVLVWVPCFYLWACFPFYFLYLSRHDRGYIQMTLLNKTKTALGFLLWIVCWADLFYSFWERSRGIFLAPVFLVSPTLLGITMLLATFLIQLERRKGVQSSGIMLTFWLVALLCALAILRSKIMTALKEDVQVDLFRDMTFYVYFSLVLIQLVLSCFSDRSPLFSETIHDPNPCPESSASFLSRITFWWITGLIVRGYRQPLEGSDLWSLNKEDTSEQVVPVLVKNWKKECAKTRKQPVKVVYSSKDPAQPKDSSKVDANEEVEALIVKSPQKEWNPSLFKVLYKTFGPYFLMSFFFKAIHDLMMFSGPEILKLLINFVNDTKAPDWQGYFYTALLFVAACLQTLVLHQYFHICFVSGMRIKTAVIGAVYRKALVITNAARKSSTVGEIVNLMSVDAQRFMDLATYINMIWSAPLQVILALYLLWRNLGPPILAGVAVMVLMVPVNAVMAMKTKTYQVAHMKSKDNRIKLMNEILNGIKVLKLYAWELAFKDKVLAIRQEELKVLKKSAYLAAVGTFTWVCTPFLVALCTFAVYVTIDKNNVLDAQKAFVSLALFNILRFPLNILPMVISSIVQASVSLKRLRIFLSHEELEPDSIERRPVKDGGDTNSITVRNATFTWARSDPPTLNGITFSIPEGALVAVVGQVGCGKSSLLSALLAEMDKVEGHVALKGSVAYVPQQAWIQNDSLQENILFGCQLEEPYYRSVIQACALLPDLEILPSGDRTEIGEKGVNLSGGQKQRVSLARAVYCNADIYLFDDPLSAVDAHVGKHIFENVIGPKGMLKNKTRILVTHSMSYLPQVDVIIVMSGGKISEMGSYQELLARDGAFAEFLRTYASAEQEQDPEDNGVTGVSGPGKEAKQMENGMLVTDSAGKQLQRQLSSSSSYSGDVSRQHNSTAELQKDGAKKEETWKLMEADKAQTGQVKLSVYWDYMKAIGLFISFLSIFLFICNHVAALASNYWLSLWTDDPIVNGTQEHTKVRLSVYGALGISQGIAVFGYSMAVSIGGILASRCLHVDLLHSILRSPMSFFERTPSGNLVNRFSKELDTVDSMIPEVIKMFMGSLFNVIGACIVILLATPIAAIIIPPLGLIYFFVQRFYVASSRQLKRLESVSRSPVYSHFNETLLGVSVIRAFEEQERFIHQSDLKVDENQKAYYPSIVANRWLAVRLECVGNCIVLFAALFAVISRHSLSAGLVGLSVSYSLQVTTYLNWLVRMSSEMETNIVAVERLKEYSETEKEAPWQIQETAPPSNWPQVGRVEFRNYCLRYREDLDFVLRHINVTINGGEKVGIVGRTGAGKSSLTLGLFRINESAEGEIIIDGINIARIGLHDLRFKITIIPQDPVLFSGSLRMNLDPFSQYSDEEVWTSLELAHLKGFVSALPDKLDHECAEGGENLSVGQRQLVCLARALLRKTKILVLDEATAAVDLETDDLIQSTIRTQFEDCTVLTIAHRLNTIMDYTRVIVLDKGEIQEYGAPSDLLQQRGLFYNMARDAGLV

| Molecule | binding to C6 cells overexpressing human ABCC1 [1] | binding to C6 cells overexpressing cynomolgus ABCC1 [2] | binding to human ABCC1 in the titration binding assay [3] | binding to cynomolgus ABCC1 in the titration binding assay [4] | inhibition of the efflux function of the ABCC1 transporter [5] | also measured |
| --- | --- | --- | --- | --- | --- | --- |
| B1 | retain the ability to bind both human and cynomolgus ABCC1 | retain the ability to bind both human and cynomolgus ABCC1 |  |  |  |  |
| B2 | retain the ability to bind both human and cynomolgus ABCC1 | retain the ability to bind both human and cynomolgus ABCC1 |  |  |  |  |
| B3 | retain the ability to bind both human and cynomolgus ABCC1 | retain the ability to bind both human and cynomolgus ABCC1 |  |  |  |  |
| B4 |  |  | bind both human and cynomolgus ABCC1 | bind both human and cynomolgus ABCC1 | significantly inhibit the efflux function |  |
| B5 |  |  |  |  |  | effect of doxorubicin on the inhibition of tumor growth by the antibody [6]: enhanced by doxorubicin; tumor growth in vivo [6]: inhibit tumor growth |
| B6 |  |  | bind both human and cynomolgus ABCC1 | bind both human and cynomolgus ABCC1 | significantly inhibit the efflux function |  |
| B7 |  |  |  |  |  | effect of doxorubicin on the inhibition of tumor growth by the antibody [6]: enhanced by doxorubicin; tumor growth in vivo [6]: inhibit tumor growth |
| B8 |  |  | bind both human and cynomolgus ABCC1 | bind both human and cynomolgus ABCC1 | significantly inhibit the efflux function |  |
| B9 |  |  | bind both human and cynomolgus ABCC1 | bind both human and cynomolgus ABCC1 | significantly inhibit the efflux function |  |
